Experimental data: the DeepSol protein solubility set

Assay: soluble on expression in E. coli; label from the status in PepcDB or PDB records

| Sequence | soluble on expression in E. coli |
| --- | --- |
| MNQIDTGLVKRLIREQFPEWAHLEVKPVKFSGHDNRTFQLGDKMSVRLPSDAAYTPQVEKENKWLPILSKELSLPISTPIAKGNPSEAYPWPWSINKWIEGETVTKQNVRDLSEFAAHLGSFLVELQSIDASKGPIAGAHNFYRGGLISVYDEEARDAIENNKDVFDETVLKHLWDLALQSTWRRKPVWIHGDVAPGNLLVKDGKLCAVIDFGILGVGDPACDAAMSWTFFDKSSRKIFKEVLQIDEETWNRARGWALWKALITYDANKISNKIVAEESYRVIQVIVNDYGR | not soluble |
| MIDIHCHILPAMDDGAGDSADSIEMARAAVRQGIRTIIATPHHNNGVYKNEPAAVREAADQLNKRLIKEDIPLHVLPGQEIRIYGEVEQDLAKRQLLSLNDTKYILIEFPFDHVPRYAEQLFYDLQLKGYIPVIAHPERNREIRENPSLLYHLVEKGAASQITSGSLAGIFGKQLKAFSLRLVEANLIHFVASDAHNVKTRNFHTQEALYVLEKEFGSELPYMLTENAELLLRNQTIFRQPPQPVKRRKLFGFF | not soluble |
| MSDYQVLLYYKYTTIDDPETFAKEHLAACKEMELKGRILVATEGINGTVSGTVEATNKYMDYMANDARFADMVFKIDAADAHAFKKMHVRPRAEIVSLSLEEDVNPLEVTGTYLEPSEFREALLDEDTVILDARNDYEFDIGHFRGAVRPDIQNFRELPGWIEDNREQLADKKIVTYCTGGIRCEKFSGWLKTAGFDDVSQLHGGIATYGKNEETKGELWDGQMYVFDERIAVPINQVNPTIVGKDYFDGTPCERYINCANPYCNKQILASIENEKKYLRSCSHDCRVHPANLYTKNLSKEEFTERLQAIDETLPEMVQ | not soluble |
| MGSDKIHHHHHHMYVENACYQKAILPEHVGNALIESLPKKLTDEELVDKLANYPKCLTEDTQNDPEIRAEYLTRIKRLRQPQLVYFDVFRAVEIAIKDGYSAKNPLSPTTMNYLHYSLEDRPIIEPNTGFFKPKGCGITIIGESGVGKTSMLEQVLSIYPDVIKHQSYSGMSLPLTQVVWLKVDCPDDSSVKGLCHRILDEIDRKLDIKDTKPQNTIALLIKQIEAKMKSNYLGILVIDEMQNLNTAKAGGAERLLGFLHNLMNNLGIPILFCANPPFDKLLSKTLKAARRAESGGYFDIGLLKNSEDEWGLFVDELWKLQWTNVQTPLTQDLSDRLFNLSVGNMDLAVRIFYASQRAVIGSLNERITTDVLDKGASIAIRASKSTTDELRLSLLKRKNESKKETPNNEASEEAKVITESKGKFVTIPGDLSRPHHPEFAERITELQYEDDLHALIEDPALIQRASEEEHPLDMLKSAGLFCEDPLKTFG | not soluble |
| MRKQWLGICIAAGMLAACTSDDGQQQTVSVPQPAVCNGPIVEISGADPRFEPLNATANQDYQRDGKSYKIVQDPSRFIQAGLAAIYDAEPGSNLTASGEAFDPTQLTAAHPTLPIPSYARITNLANGRMIVVRINDRGPYGNDRVISLSRAAADRLNTSNNTKVRIDPIIVAQDGSLSGPGMACTTVAKQTYALPAPPDLSGGAGTSSVSGPQGDILPVSNSTLKSEDPTGAPVTSSGFLGAPTTLAPGVLEGSEPTPAPQPVVTAPSTTPATSPAMVTPQAASQSASGNFMVQVGAVSDQARAQQYQQQLGQKFGVPGRVTQNGAVWRIQLGPFANKAEASTLQQRLQTEAQLQSFITTAQ | not soluble |
| MSLASTIMSQEVSWTDILEKHPALRWIKPIPEDWEIFPKHLCAFESFLYVAVGQEVRSLDCRLLKHKNEASHKNFYKKLFNPELDFMIEQICLSKNGRFLAVVGKSKIVILGLRSKLSEQNPLAESVSNFGESVNNFSNSEHQENGTNSLKLSEVTICSVAVINPSSQIVSVRFHPLGKSGRSLVVLTETSLLLYEAGNGVLMPDYEIPLKLTHQASNSFDADVDLHIPTAFCFSNVSQGWGVFTIYILTRGGDVFSVCPVMPANAMIPQDVLKQIRLILTKKEDDADAENHRRNVHWITKLLGEAALANDLSTSEGHHHHHH | soluble |
| MEITDPGDFRQRIETSFARQGVVQAINAEISRIEHRLVEIELPFHEKLTQQHGILHAGVIAAGLDTACTYAAYTIIEPEASLLTIEFKVNLMSPGRGERFLFRGEIIKPGNNLIVADGRAYALSDGPAKLIASMTGTMMVVKGREDITGLEHHHHHH | soluble |
